From patent publication US20250197451A1 (CAPITAL MEDICAL UNIVERSITY SCHOOL OF STOMATOLOGY, published 2025) come the findings set out here.

For this test, the target named is T1, biotin-labelled EZH2 protein (UniProt Q15910 1-746, limits assumed, biotin label (EZ-link NHS-PEO4-Biotinylation kit)).
T1 construct: Probe in solution (1 ug/ml) on the KDM2B peptide microarray; also called NHS-PEO4-Biotinylation-labelled EZH2 protein; recombinant protein
The test is described as follows: KDM2B peptide array probed with biotin-EZH2 1 ug/ml, SA-HRP/ECL.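 Note: Background-corrected optical density of each spot on the membrane, given as percent of the brightest spot (100%), color developed for 5 minutes; 100% is the highest background-corrected spot optical density on the membrane.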

T1 sequence (Q15910 whole entry): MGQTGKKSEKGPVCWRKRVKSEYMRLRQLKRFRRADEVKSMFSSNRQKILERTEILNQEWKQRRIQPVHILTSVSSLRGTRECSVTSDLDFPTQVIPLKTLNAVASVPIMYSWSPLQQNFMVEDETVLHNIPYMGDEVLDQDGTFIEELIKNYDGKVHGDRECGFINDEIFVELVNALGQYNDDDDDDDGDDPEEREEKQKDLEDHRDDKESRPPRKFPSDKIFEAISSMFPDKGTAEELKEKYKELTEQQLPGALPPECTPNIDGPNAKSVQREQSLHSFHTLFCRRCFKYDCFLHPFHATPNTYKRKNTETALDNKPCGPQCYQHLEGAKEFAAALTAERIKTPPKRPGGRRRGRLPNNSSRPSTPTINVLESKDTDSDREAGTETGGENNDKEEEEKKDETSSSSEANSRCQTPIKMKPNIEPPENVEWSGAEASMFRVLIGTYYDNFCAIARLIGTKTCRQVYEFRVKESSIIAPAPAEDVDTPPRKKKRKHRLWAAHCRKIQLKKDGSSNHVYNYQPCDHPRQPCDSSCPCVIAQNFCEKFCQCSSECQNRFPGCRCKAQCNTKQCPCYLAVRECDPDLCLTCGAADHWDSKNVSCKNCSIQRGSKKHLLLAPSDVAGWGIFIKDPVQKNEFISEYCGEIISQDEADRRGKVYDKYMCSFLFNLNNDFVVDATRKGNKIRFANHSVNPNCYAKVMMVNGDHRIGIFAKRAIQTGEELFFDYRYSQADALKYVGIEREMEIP
Protocol: After blocking, the polypeptide microarray was incubated with biotin-labeled target protein for hybridization, visualized with the chemical chromogenic substrate and imaged using a Chempchemi digital imager. The image of colored polypeptide microarray was analyzed for the optical density of the colored points. Particularly, the optical density of each colored point was calculated using the optical density of the respective surrounding background as a reference for background correction. The highest optical density value of the colored point on membrane was set to 100%, and the optical density value of the remaining colored points was converted into percentages relative to the highest value. The points with an optical density percentage of more than 30% on the polypeptide membrane and also with an optical density percentage of less than 30% on the negative membrane were defined as positive colored points.
For the hybridization experiment, a solution of NHS-PEO4-Biotinylation-labelled EZH2 protein (1 μg/ml) was used for the hybridization of the polypeptide microarray. Streptavidin-HRP was used to amplify the reaction signal according to the experimental procedure and conditions described above, and the time of color development was 5 minutes.

With PPDGLLRRKSDDVHL [peptide 158], the “Intensity (%)” value amounted to 0%.
Next, GDFVHAMEGKDFNYE [peptide 17]: 0%; LSDVEEIVSVRGFSL [peptide 12]: 0.13%; HSKKVPPDGLLRRKS [peptide 157]: 18.4%.
Turning to SQLYQGDFVHAMEGK [peptide 16], the “Intensity (%)” value worked out at 1.87%.
The value for GSSSHLSPRPPLGSS [peptide 166] was 0.84%.
The value for WTHLTEFELKGLKAL [peptide 102] was 0%; that for RMKQSCIMRQCIAPV [peptide 129] was 9.37%; that for GVPVVTWPKKTPKNR [peptide 114] was 0%.
QKMNRDNKEGQEPAK [peptide 151]: the “Intensity (%)” value was determined as 100%.
Next, GSPATEVSAKWTHLT [peptide 100]: 0%.
In the case of CNEIIHPGCLKIKES [peptide 139], the “Intensity (%)” value worked out at 85.1%.
On to DRQRYDENEDLSDVE [peptide 10], for which the “Intensity (%)” value was 0%.
For KIKESEGVVNDELPN [peptide 141], the “Intensity (%)” value was determined as 10.8%.
Next, HPGCLKIKESEGVVN [peptide 140]: 0%; DNKEGQEPAKRRSEC [peptide 152]: 97.8%; DELPNCWECPKCNHA [peptide 143]: 0%.
Regarding RTECGECHFCKDMKK [peptide 125], the “Intensity (%)” value is 1.57%.
Take VLKEHADDDPSLAIT [peptide 111]: the “Intensity (%)” value turned out to be 0.99%.
Next, PLGSSLSPWWRSSLT [peptide 168]: 0%; TPKNRAVGRPKGKLG [peptide 116]: 0%; MECSICNEIIHPGCL [peptide 138]: 26.8%.
Next, LSPWWRSSLTYFQQQ [peptide 169]: 0%; EFELKGLKALVEKLE [peptide 103]: 4.44%.
Next, FNLMLMECSICNEII [peptide 137]: 0.24%; QEPAKRRSECEEAPR [peptide 153]: 41.6%.
Take CIAPVLPHTAVCLVC [peptide 131]: the “Intensity (%)” value turned out to be 100%.
Consider CWECPKCNHAGKTGK [peptide 144], for which the “Intensity (%)” value stood at 0%.
Next, VCLVCGEAGKEDTVE [peptide 133]: 12%; EGIEDPQALLEGVKN [peptide 108]: 0%; SLAITGVPVVTWPKK [peptide 113]: 1.55%.
The value for ARRRRTRCRKCEACL [peptide 122] was 100%; that for MAGPQMGGSAEDHPP [peptide 1] was 0.25%.
The value for KKCVPEGIEDPQALL [peptide 107] was 0%; that for LRRKSDDVHLRKKRK [peptide 159] was 0%.
As for GEAGKEDTVEEEEGK [peptide 134], the “Intensity (%)” value stood at 0%.
Next, SLPENKKCVPEGIED [peptide 106]: 3.77%.
Next, EEEGKFNLMLMECSI [peptide 136]: 0%; ECHFCKDMKKFGGPG [peptide 126]: 6.05%; KLAANRTTAGARRRR [peptide 120]: 0%.
The value for QKRGPGFKYASNLPG [peptide 147] was 0%; that for EEKLRSQLYQGDFVH [peptide 15] was 0%; that for RRSDEHSKKVPPDGL [peptide 156] was 0%.
As to TRCRKCEACLRTECG [peptide 123], the “Intensity (%)” value turned out to be 97.3%.
Consider VEKLESLPENKKCVP [peptide 105], for which the “Intensity (%)” value turned out to be 20.3%.
For PASAVKLAANRTTAG [peptide 119], the “Intensity (%)” value was 0%.
On to CEACLRTECGECHFC [peptide 124], for which the “Intensity (%)” value worked out at 0%.
Turning to LSPRPPLGSSLSPWW [peptide 167], the “Intensity (%)” value was 0%.
On to TWPKKTPKNRAVGRP [peptide 115], for which the “Intensity (%)” value is 0%.
As for RTTAGARRRRTRCRK [peptide 121], the “Intensity (%)” value turned out to be 1.31%.
With KGKLGPASAVKLAAN [peptide 118], the “Intensity (%)” value is 0%.
On to RSSLTYFQQQLKPGK [peptide 170], for which the “Intensity (%)” value was 2.26%.
Take ADDDPSLAITGVPVV [peptide 112]: the “Intensity (%)” value was 0%.
Next, GFKYASNLPGSLLKE [peptide 148]: 0%; EGVVNDELPNCWECP [peptide 142]: 100%; EVSAKWTHLTEFELK [peptide 101]: 2.69%.
On to YEKPQELSGRKRASS [peptide 162], for which the “Intensity (%)” value was 0%.
The value for EGVKNVLKEHADDDP [peptide 110] was 0%; that for RKKRKYEKPQELSGR [peptide 161] was 0%; that for LPHTAVCLVCGEAGK [peptide 132] was 100%.
As to DENEDLSDVEEIVSV [peptide 11], the “Intensity (%)” value came to 0%.
The value for AVGRPKGKLGPASAV [peptide 117] was 0%; that for GLKALVEKLESLPEN [peptide 104] was 8.01%.
Regarding PQALLEGVKNVLKEH [peptide 109], the “Intensity (%)” value came to 0%.
With FGGPGRMKQSCIMRQ [peptide 128], the “Intensity (%)” value came out at 0%.
